Where two headings read alike, the source gives them in different places.
Tests used:
[1] = target: HIV-1 Env of isolate Bal (HIV-1); experiment: cell-based or functional assay
[2] = target: HIV-1 Env of isolate JRFL (HIV-1); experiment: cell-based or functional assay
[3] = target: HIV-1 Env of isolate A07412VRC12A (HIV-1); experiment: cell-based or functional assay
[4] = target: HIV-1 Env of isolate PBL286.VRC36aPV (HIV-1); experiment: cell-based or functional assay
[5] = target: HIV-1 Env of isolate 57128.VRC18 (HIV-1); experiment: cell-based or functional assay
[6] = target: HIV-1 Env of isolate 89.6 (HIV-1); experiment: cell-based or functional assay
[7] = target: HIV-1 Env of isolate IIIB (HIV-1); experiment: cell-based or functional assay
[8] = target: HIV-1 Env of isolate NL4-3 (HIV-1); experiment: cell-based or functional assay
[9] = target: HIV-1 Env of isolate AD8 (HIV-1); experiment: cell-based or functional assay
[10] = target: HIV-1 Env of isolate Z2Z6 (HIV-1); experiment: cell-based or functional assay
[11] = target: HIV-1 Env of isolate 55815.EC3 (HIV-1); experiment: cell-based or functional assay
[12] = target: HIV-1 Env of isolate 92UG037.8 (HIV-1); experiment: cell-based or functional assay
[13] = target: HIV-1 Env of isolate R2 (HIV-1); experiment: cell-based or functional assay
[14] = target: HIV-1 Env of isolate CAM0015BBY.EC3 (HIV-1); experiment: cell-based or functional assay
[15] = target: HIV-1 Env of isolate KNH1088.EC5 (HIV-1); experiment: cell-based or functional assay
[16] = target: HIV-1 Env of isolate Bal (HIV-1); experiment: cell-based or functional assay; remark: listed apart in the source
[17] = target: HIV-1 Env of isolate CM243 (HIV-1); experiment: cell-based or functional assay
[18] = target: HIV-1 Env of isolate KNH1144.EC1 (HIV-1); experiment: cell-based or functional assay
[19] = target: HIV-1 Env of isolate GXC (HIV-1); experiment: cell-based or functional assay
[20] = target: HIV-1 Env of isolate JRFL (HIV-1); experiment: cell-based or functional assay; remark: listed apart in the source
[21] = target: HIV-1 Env of isolate GS-015.EC12 (HIV-1); experiment: cell-based or functional assay
[22] = target: HIV-1 Env of isolate JRCSF (HIV-1) (UniProt P20871); experiment: cell-based or functional assay
Chain of HIV-1 Env of isolate JRCSF (HIV-1) (P20871 32-848 limits assumed): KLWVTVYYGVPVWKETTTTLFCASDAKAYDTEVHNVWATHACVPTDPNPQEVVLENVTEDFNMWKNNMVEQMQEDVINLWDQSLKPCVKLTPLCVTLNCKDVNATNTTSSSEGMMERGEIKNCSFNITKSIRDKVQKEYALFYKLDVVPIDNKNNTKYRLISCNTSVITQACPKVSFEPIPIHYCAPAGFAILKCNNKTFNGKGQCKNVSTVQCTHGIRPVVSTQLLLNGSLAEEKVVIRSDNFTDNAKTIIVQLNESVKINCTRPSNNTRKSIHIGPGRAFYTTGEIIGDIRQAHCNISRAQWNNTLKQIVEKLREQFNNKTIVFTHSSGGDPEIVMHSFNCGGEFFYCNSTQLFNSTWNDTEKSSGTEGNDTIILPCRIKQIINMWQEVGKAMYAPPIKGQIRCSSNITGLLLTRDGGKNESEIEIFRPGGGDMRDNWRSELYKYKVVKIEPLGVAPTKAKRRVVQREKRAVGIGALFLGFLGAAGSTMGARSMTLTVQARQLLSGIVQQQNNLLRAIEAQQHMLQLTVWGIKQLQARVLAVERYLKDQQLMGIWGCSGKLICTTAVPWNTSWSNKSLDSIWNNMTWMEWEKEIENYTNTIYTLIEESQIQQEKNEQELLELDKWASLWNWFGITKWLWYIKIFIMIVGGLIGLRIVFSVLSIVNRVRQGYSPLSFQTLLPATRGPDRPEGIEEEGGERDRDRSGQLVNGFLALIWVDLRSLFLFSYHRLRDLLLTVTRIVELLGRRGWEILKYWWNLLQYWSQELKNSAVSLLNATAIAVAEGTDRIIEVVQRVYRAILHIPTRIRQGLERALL

[23] = target: HIV-1 Env of isolate GXE (HIV-1); experiment: cell-based or functional assay
[24] = target: HIV-1 Env of isolate N1 1046.e3 PV (HIV-1); experiment: cell-based or functional assay
[25] = target: HIV-1 Env of isolate BZ167.ec9 (HIV-1); experiment: cell-based or functional assay
[26] = target: HIV-1 Env of isolate CM240.EC1 (HIV-1); experiment: cell-based or functional assay
[27] = target: HIV-1 Env of isolate Bal.EC1 TC (HIV-1); experiment: cell-based or functional assay
gp140Con-s (HIV-1) [28] = target: gp140Con-s (HIV-1)
gp140Con-s (HIV-1) [29] = experiment: ELISA (OD 450 nm) on Cons gp140 (gp140Con-s), sCD4Fc titrated [A]

How did the IC50, neutralization of pseudotyped HIV-1 [1] turn out when 4Dm2m (bispecific antibody) was run?
The IC50, neutralization of pseudotyped HIV-1 was 0.12 nM.

And the IC90, neutralization of pseudotyped HIV-1 [1]?
The IC90, neutralization of pseudotyped HIV-1 was 0.36 nM.

And the IC50, neutralization of pseudotyped HIV-1 [2]?
Its IC50, neutralization of pseudotyped HIV-1 is 0.06 nM.

What about the IC90, neutralization of pseudotyped HIV-1 [2] of the same substance?
The IC90, neutralization of pseudotyped HIV-1 was 0.29 nM.

What about the IC50, neutralization in TZM-bl cell-based assay [3] of the same substance?
The IC50, neutralization in TZM-bl cell-based assay was 0.75 nM.

What about the IC90, neutralization in TZM-bl cell-based assay [3] of the same substance?
Its IC90, neutralization in TZM-bl cell-based assay is 5.7 nM.

What about the IC50, neutralization in TZM-bl cell-based assay [4] of the same substance?
Its IC50, neutralization in TZM-bl cell-based assay is 2 nM.

What about the IC50, neutralization in TZM-bl cell-based assay [5] of the same substance?
Its IC50, neutralization in TZM-bl cell-based assay is 0.4 nM.

And the IC90, neutralization in TZM-bl cell-based assay [5]?
The IC90, neutralization in TZM-bl cell-based assay was 2.8 nM.

What about the IC50, neutralization of pseudotyped HIV-1 [6] of the same substance?
Its IC50, neutralization of pseudotyped HIV-1 is under 0.021 nM.

And the IC90, neutralization of pseudotyped HIV-1 [6]?
The IC90, neutralization of pseudotyped HIV-1 was under 0.021 nM.

And the IC50, neutralization of pseudotyped HIV-1 [7]?
Its IC50, neutralization of pseudotyped HIV-1 is 0.037 nM.

What about the IC90, neutralization of pseudotyped HIV-1 [7] of the same substance?
Its IC90, neutralization of pseudotyped HIV-1 is 0.1 nM.

And the IC50, neutralization of pseudotyped HIV-1 [8]?
Its IC50, neutralization of pseudotyped HIV-1 is 0.094 nM.

And the IC90, neutralization of pseudotyped HIV-1 [8]?
Its IC90, neutralization of pseudotyped HIV-1 is 0.15 nM.

What about the IC50, neutralization of pseudotyped HIV-1 [9] of the same substance?
Its IC50, neutralization of pseudotyped HIV-1 is 0.13 nM.

What about the IC90, neutralization of pseudotyped HIV-1 [9] of the same substance?
The IC90, neutralization of pseudotyped HIV-1 was 0.74 nM.

And the IC50, neutralization of pseudotyped HIV-1 [10]?
The IC50, neutralization of pseudotyped HIV-1 was 0.14 nM.

What about the IC90, neutralization of pseudotyped HIV-1 [10] of the same substance?
Its IC90, neutralization of pseudotyped HIV-1 is 1.1 nM.

What about the IC50, neutralization in TZM-bl cell-based assay [11] of the same substance?
Its IC50, neutralization in TZM-bl cell-based assay is 0.084 nM.

What about the IC90, neutralization in TZM-bl cell-based assay [11] of the same substance?
The IC90, neutralization in TZM-bl cell-based assay was 0.61 nM.

What about the IC50, neutralization of pseudotyped HIV-1 [12] of the same substance?
The IC50, neutralization of pseudotyped HIV-1 was 0.051 nM.

And the IC90, neutralization of pseudotyped HIV-1 [12]?
The IC90, neutralization of pseudotyped HIV-1 was 0.45 nM.

What about the IC50, neutralization of pseudotyped HIV-1 [13] of the same substance?
The IC50, neutralization of pseudotyped HIV-1 was 0.028 nM.

And the IC90, neutralization of pseudotyped HIV-1 [13]?
The IC90, neutralization of pseudotyped HIV-1 was 0.43 nM.

What about the IC50, neutralization in TZM-bl cell-based assay [14] of the same substance?
The IC50, neutralization in TZM-bl cell-based assay was 0.72 nM.

And the IC90, neutralization in TZM-bl cell-based assay [14]?
The IC90, neutralization in TZM-bl cell-based assay was 7.4 nM.

And the IC50, neutralization in TZM-bl cell-based assay [15]?
Its IC50, neutralization in TZM-bl cell-based assay is 0.48 nM.

What about the IC50, inhibition of Env-mediated cell-cell fusion [16] of the same substance?
Its IC50, inhibition of Env-mediated cell-cell fusion is 4.1 nM.

And the IC50, neutralization of pseudotyped HIV-1 [16]?
The IC50, neutralization of pseudotyped HIV-1 was 0.15 nM.

What about the IC90, neutralization of pseudotyped HIV-1 [16] of the same substance?
The IC90, neutralization of pseudotyped HIV-1 was 0.5 nM.

What about the IC50, neutralization of pseudotyped HIV-1 [17] of the same substance?
The IC50, neutralization of pseudotyped HIV-1 was 0.29 nM.

What about the IC90, neutralization of pseudotyped HIV-1 [17] of the same substance?
Its IC90, neutralization of pseudotyped HIV-1 is 1.2 nM.

And the IC50, neutralization in TZM-bl cell-based assay [18]?
Its IC50, neutralization in TZM-bl cell-based assay is 0.081 nM.

What about the IC90, neutralization in TZM-bl cell-based assay [18] of the same substance?
The IC90, neutralization in TZM-bl cell-based assay was 1 nM.

And the IC50, neutralization of pseudotyped HIV-1 [19]?
Its IC50, neutralization of pseudotyped HIV-1 is 0.61 nM.

And the IC90, neutralization of pseudotyped HIV-1 [19]?
Its IC90, neutralization of pseudotyped HIV-1 is 4 nM.

And the IC50, inhibition of Env-mediated cell-cell fusion [20]?
The IC50, inhibition of Env-mediated cell-cell fusion was 3.6 nM.

And the IC50, neutralization of pseudotyped HIV-1 [20]?
The IC50, neutralization of pseudotyped HIV-1 was 0.14 nM.

And the IC90, inhibition of Env-mediated cell-cell fusion [20]?
Its IC90, inhibition of Env-mediated cell-cell fusion is 8.8 nM.

And the IC90, neutralization of pseudotyped HIV-1 [20]?
The IC90, neutralization of pseudotyped HIV-1 was 0.39 nM.

What about the IC50, neutralization in TZM-bl cell-based assay [21] of the same substance?
The IC50, neutralization in TZM-bl cell-based assay was 0.022 nM.

And the IC90, neutralization in TZM-bl cell-based assay [21]?
The IC90, neutralization in TZM-bl cell-based assay was 0.17 nM.

And the IC50, neutralization of pseudotyped HIV-1 [22]?
Its IC50, neutralization of pseudotyped HIV-1 is 0.29 nM.

What about the IC90, neutralization of pseudotyped HIV-1 [22] of the same substance?
The IC90, neutralization of pseudotyped HIV-1 was 3 nM.

And the IC50, neutralization of pseudotyped HIV-1 [23]?
Its IC50, neutralization of pseudotyped HIV-1 is 0.83 nM.

And the IC90, neutralization of pseudotyped HIV-1 [23]?
The IC90, neutralization of pseudotyped HIV-1 was 8.2 nM.

What about the IC90, neutralization in TZM-bl cell-based assay [24] of the same substance?
Its IC90, neutralization in TZM-bl cell-based assay is 27 nM.

And the IC50, neutralization in TZM-bl cell-based assay [25]?
The IC50, neutralization in TZM-bl cell-based assay was 0.077 nM.

What about the IC90, neutralization in TZM-bl cell-based assay [25] of the same substance?
The IC90, neutralization in TZM-bl cell-based assay was 0.5 nM.

What about the IC50, neutralization in TZM-bl cell-based assay [26] of the same substance?
The IC50, neutralization in TZM-bl cell-based assay was 0.45 nM.

And the IC90, neutralization in TZM-bl cell-based assay [26]?
Its IC90, neutralization in TZM-bl cell-based assay is 3.7 nM.

And the IC50, neutralization in TZM-bl cell-based assay [27]?
Its IC50, neutralization in TZM-bl cell-based assay is 0.057 nM.

What about the IC90, neutralization in TZM-bl cell-based assay [27] of the same substance?
The IC90, neutralization in TZM-bl cell-based assay was 0.22 nM.

Which EC50 (read off the curve) of the enhancement of m36h1Fc binding (gp140Con-s (HIV-1) [28]) does the source give for D1D2 (receptor) here?
The EC50 (read off the curve) of the enhancement of m36h1Fc binding was 10 to 100 nM.

“D1D2mFc (from UniProt P01730 26-203) (Fc fusion)” was tested. Which EC50 (read off the curve) (gp140Con-s (HIV-1) [29]) did it give?
Its EC50 (read off the curve) is 0.3 nM.
